Test results: patent US20250368684A1, “NEW EGFRVIII-BINDING PEPTIDES, CONJUGATES AND USES THEREOF” (NANOTHERA BIOSCIENCES, INC., priority 2021, published 2025)
No end group written: not given here. *: point of attachment. FITC = O=C1OC2(c3ccc(O)cc3Oc3cc(O)ccc32)c2ccc(NC(=S)*)cc21; Ahx = NCCCCCC(=O)O

Tests used:
[1] = molecular target: T1, CLTH/EGFRvIII cells expressing hEGFRvIII (Homo sapiens, UniProt P00533, DELINS30-297G); test: Flow cytometry binding of phage displayed peptides on hEGFRvIII cells; details: phage displayed peptide, vs hEGFR WT and 293T cells
T1 construct: host or cells: CLTH/EGFRvIII, established from human embryo kidney cells
Excerpt: (§1) 293T human embryo kidney cells (Sigma; #85120602-1VL), CLTH/EGFR WT cells (Celther; #CL 01010-CLTH) and CLTH/EGFRvIII cells (Celther; #CL 01001-CLTH) were purchased from Sigma and Celther accordingly. CLTH/EGFR WT and CLTH/EGFRvIII cell lines are established from human embryo kidney cells to stably express EGFR WT and EGFRvIII proteins respectively. The three types of cells were maintained in Dulbecco's modified Eagle media (high glucose) supplemented with 10% fetal bovine serum (FBS), 100 U/mL penicillin, […] streptomycin and 1% MEM NEAA. The cells were cultured at 37° C. in a humidified atmosphere containing 5% CO2.
Cell cultures and flow cytometry experiments with phages or peptides were performed by Institut Mondor de Recherche Biomédicale (IMRB U955, France). […] Anti-IgG1 conjugated to phycoerythrin (PE) (Miltenyi Biotec) was used as a secondary antibody to read the fluorescence of PE. […]
On phages. […] Cells were analyzed by flow cytometry on a MACSQuant Analyser 16 (Miltenyi Biotec) using the MACS Quantify software to acquire and process the data. Viobility™ 405/520 fixable dye was excited at 405 nm and fluorescence was collected with the 525/50 nm filter. PE was excited at 488 nm and fluorescence was collected with the 579/34 nm filter. Viable cells were gated, and PE fluorescence intensity was recorded.

293T cells = test: Flow cytometry cellular binding of FITC-Ahx-peptides on 293T cells; set-up: species or system human; details: 10 µM FITC-Ahx-peptide, 20 min at RT
Excerpt: as §1
(§2) On FITC-Ahx-peptides. Flow cytometry analysis was also performed to quantitatively analyze the binding affinity of the synthetized peptides to the different cell types. Briefly, 293T, CLTH/EGFR WT and CLTH/EGFRvIII cells (100 000 cells, 500 μL) were plated in 24-well plates and incubated overnight at 37° C. in a humidified atmosphere containing 5% CO2 overnight. […] Cells were analyzed by flow cytometry on a MACSQuant Analyser 16 (Miltenyi Biotec) using the MACS Quantify software to acquire and process the data. LIVE/DEAD™ Fixable dye was excited at 640 nm and fluorescence was collected with the 785/62 nm filter. FITC was excited at 488 nm and fluorescence was collected with the 525/50 nm filter. Viable cells were gated, FITC fluorescence intensity was recorded and the mean fluorescence intensity (MFI) was measured. MFI values were then normalized by substracting MFI from blank cells and dividing by the correction factor determined using a spectrofluorimeter.
Since FITC fluorescence can be impacted by the nature of the amino acids in the peptide sequence and since the conjugation rate of FITC in the peptide synthesis can fluctuate, it was needed to measure a correction factor according to the fluorescence intensity of each peptide. As flow cytometry cannot analyze fluorescence of small molecules, a spectrofluorimeter was used in similar conditions (excitation and emission) to the flow cytometry conditions. […] Linear regressions were determined for each peptide. […]

[2] = molecular target: T2, EGFRvIII cells (expressing EGFRvIII) (Homo sapiens, UniProt P00533, DELINS30-297G); test: Flow cytometry cellular binding of FITC-Ahx-peptides on EGFRvIII cells; details: for Normalized MFI vIII: 10 µM FITC-Ahx-peptide, 20 min at RT, EGFRvIII cells
T2 construct: host or cells: CLTH/EGFRvIII, established from human embryo kidney cells
Excerpt: as §1, §2
Since FITC fluorescence can be impacted by the nature of the amino acids in the peptide sequence and since the conjugation rate of FITC in the peptide synthesis can fluctuate, it was needed to measure a correction factor according to the fluorescence intensity of each peptide. As flow cytometry cannot analyze fluorescence of small molecules, a spectrofluorimeter was used in similar conditions (excitation and emission) to the flow cytometry conditions.

[3] = molecular target: T3, EGFR WT cells (expressing EGFR WT) (Homo sapiens, UniProt P00533); test: Flow cytometry cellular binding of FITC-Ahx-peptides on EGFR WT cells; details: 10 µM FITC-Ahx-peptide, 20 min at RT
T3 construct: host or cells: CLTH/EGFR WT, established from human embryo kidney cells
Excerpt: as §1
as §2, with “types.” for “types. Briefly, 293T, CLTH/EGFR WT and CLTH/EGFRvIII cells (100 000 cells, 500 μL) were plated in 24-well plates and incubated overnight at 37° C. in a humidified atmosphere containing 5% CO2 overnight.”, “spectrofluorimeter. […]” for “spectrofluorimeter.”

[4] = molecular target: human EGF receptor variant III (EGFRvIII) on CLTH/EGFRvIII cells (human) (UniProt P00533); test: flow cytometry, normalized MFI on EGFRvIII cells over normalized MFI on EGFR WT cells
[5] = molecular target: human EGF receptor variant III (EGFRvIII) on CLTH/EGFRvIII cells (human) (UniProt P00533); test: flow cytometry, 10 uM FITC-Ahx-peptide, 20 min RT, CLTH/EGFRvIII cells; MFI minus blank cells, divided by correction factor
[6] = molecular target: human wild type EGF receptor (EGFR WT) on CLTH/EGFR WT cells (human) (UniProt P00533); test: flow cytometry, 10 uM FITC-Ahx-peptide, 20 min RT, CLTH/EGFR WT cells; MFI minus blank cells, divided by correction factor
[7] = molecular target: T4, human EGF receptor variant III (EGFRvIII) on CLTH/EGFRvIII cells (human, UniProt P00533 25-1210); test: flow cytometry, phage on CLTH/EGFRvIII cells, anti-M13-biotin plus anti-biotin-PE
T4 construct: whole, on cells

NESGITRIALQD (Peptide selected from the NGS analysis, not showing specific binding to hEGFRvIII cells in flow cytometry) [peptide selected from NGS analysis of biopanning]
specific binding to hEGFRvIII [1]: did not show specific binding

FITC-Ahx-YHWYGYTPENVI-CONH2: literature control peptide YHWYGYTPENVI (SEQ ID NO:6) linked to the FITC-Ahx tag ({FITC-Ahx}-YHWYGYTPENVI-NH2; SMILES CC[C@H](C)[C@H](NC(=O)[C@@H](NC(=O)[C@H](CC(N)=O)NC(=O)[C@H](CCC(=O)O)NC(=O)[C@@H]1CCCN1C(=O)[C@@H](NC(=O)[C@H](Cc1ccc(O)cc1)NC(=O)CNC(=O)[C@H](Cc1ccc(O)cc1)NC(=O)[C@H](Cc1c[nH]c2ccccc12)NC(=O)[C@H](Cc1c[nH]cn1)NC(=O)[C@H](Cc1ccc(O)cc1)NC(=O)CCCCCNC(=S)Nc1ccc2c(c1)C(=O)OC21c2ccc(O)cc2Oc2cc(O)ccc21)[C@@H](C)O)C(C)C)C(N)=O)
Normalized MFI 293T (293T cells): 7.6
Normalized MFI vIII [2]: 9.7
Normalized MFI WT [3]: 4.5

FITC-Ahx-VLGREEWSTSW-CONH2: VLGREEWSTSYW conjugated with FITC at the N-terminus via 6-aminohexanoic acid (Ahx) linker
Normalized MFI 293T (293T cells): 5.1

FITC-Ahx-FALGEA-CONH2: literature control peptide FALGEA (SEQ ID NO:5) linked to the FITC-Ahx tag ({FITC-Ahx}-FALGEA-NH2; SMILES CC(C)C[C@H](NC(=O)[C@H](C)NC(=O)[C@H](Cc1ccccc1)NC(=O)CCCCCNC(=S)Nc1ccc2c(c1)C(=O)OC21c2ccc(O)cc2Oc2cc(O)ccc21)C(=O)NCC(=O)N[C@@H](CCC(=O)O)C(=O)N[C@@H](C)C(N)=O)
Normalized MFI 293T (293T cells): 0.9
Normalized MFI vIII [2]: 1.8
Normalized MFI ratio VIII/WT ([2]; normalized MFI of vIII cell line over WT cell line): 2.6
Normalized MFI WT [3]: 0.7

LEKGNTLSTSTV (phage displayed; Peptide selected from the NGS analysis, not showing specific binding to hEGFRvIII cells in flow cytometry) [peptide selected from NGS analysis of biopanning]
specific binding to hEGFRvIII [1]: did not show specific binding

B1: FITC-Ahx-FALGEA-CONH2 (peptide)
peptide: {FITC-Ahx}-FALGEA-NH2
SMILES: CC(C)C[C@H](NC(=O)[C@H](C)NC(=O)[C@H](Cc1ccccc1)NC(=O)CCCCCNC(=S)Nc1ccc2c(c1)C(=O)OC21c2ccc(O)cc2Oc2cc(O)ccc21)C(=O)NCC(=O)N[C@@H](CCC(=O)O)C(=O)N[C@@H](C)C(N)=O
Normalized MFI ratio vIII/WT [4]: 2.6
Normalized MFI [5]: 1.8

B2: FITC-Ahx-…-CONH2 (peptide)
peptide: {FITC-Ahx}-YHWYGYTPENVI-NH2
SMILES: CC[C@H](C)[C@H](NC(=O)[C@@H](NC(=O)[C@H](CC(N)=O)NC(=O)[C@H](CCC(=O)O)NC(=O)[C@@H]1CCCN1C(=O)[C@@H](NC(=O)[C@H](Cc1ccc(O)cc1)NC(=O)CNC(=O)[C@H](Cc1ccc(O)cc1)NC(=O)[C@H](Cc1c[nH]c2ccccc12)NC(=O)[C@H](Cc1c[nH]cn1)NC(=O)[C@H](Cc1ccc(O)cc1)NC(=O)CCCCCNC(=S)Nc1ccc2c(c1)C(=O)OC21c2ccc(O)cc2Oc2cc(O)ccc21)[C@@H](C)O)C(C)C)C(N)=O
Normalized MFI [6]: 4.5

B3: NESGITRIALQD phage displayed peptide (peptide)
peptide: NESGITRIALQD
modifications: also: displayed on M13 phage coat protein
notes: not shown: M13 coat protein of the Ph.D.-12 library that carries the peptide
binding result [7]: no binding

B4: LEKGNTLSTSTV phage displayed peptide (peptide)
peptide: LEKGNTLSTSTV
modifications: also: displayed on M13 phage coat protein
notes: as for B3
binding result [7]: no binding
